Test system: K4 kissing-loop RNA reporter
Test: apparent KD of K4 kissing-loop reporter; higher = weaker reporter binding
Details: Eterna round: R107
Experimental: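 RNA-MaP round R107: designed RNA switches with theophylline, tryptophan, arginine or FMN aptamers are transcribed on-chip within common flanks. They are titrated with a labelled K4 kissing-loop RNA reporter in RNA-MaP buffer (100 mM Tris pH 7.5, 80 mM KCl, 4 mM MgCl2), without ligand or with the indicated ligand. Median apparent KD per design.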

[1] = input ligand: theophylline 20 uM
[2] = input ligand: tryptophan 2.4 mM
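Also: bound reporter read as fluorescence of individual clusters on recovered sequencing chips by microscopy, with normalized cluster intensities fitted with a binding model.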

Row | Sequence | apparent KD of K4 kissing-loop reporter (input ligand: FMN 200 uM) | apparent KD of K4 kissing-loop reporter (input ligand: arginine 13.2 mM) | apparent KD of K4 kissing-loop reporter (input ligand: none) | apparent KD of K4 kissing-loop reporter [1] | apparent KD of K4 kissing-loop reporter [2]
1 | AAGUGAUGUUGUAGUGAUGUUGUGAUGUUGCAGGAUAUAUAGUGAUGUAGAAGGGUAUGUACAGUUUUUUUUUUUGAGUGAUGAU [vvcvmullin] | 82.3 nM | 40.1 nM | 74.2 nM | 51.4 nM | 70.3 nM
2 | AAGUGAUGUUGUAGUGAUGUUGUGAUGUUGCAGGAUAUAUAGUGAUGUAGAAGGGUAUGUACUUAUUUUUUUUUUGAGUUAUGUU [wzzwzrmullin] | 79.5 nM | 33.4 nM | 58 nM | 46.2 nM | 63.3 nM
3 | AAGUGAUGUUGUAGUGAUGUUGUGAUGUUGCAGGAUAUAUAGUGAUGUAGAAGGGUAUGUGCAGUGUUCUUAUUUGAGUGUUGAU [zffdmullin] | 80.1 nM | 33.9 nM | 64.7 nM | 63.2 nM | 64 nM
4 | AAGUGUGGUCCAGUGAUGUUGGAACCAGAUACCAGCGACAUAGUGCGCCCUUGGCAGCUGGCACACAUGCGCUGCACGACUAGAA [Riusveis] | 206 nM | 182 nM | 207 nM | 363 nM | 168 nM
5 | AAUAAAAUCACGGCCGCCACUGAUAUCCAUAUUAGGAGUGAUGUUCCUAUGACUAUAUAAUUUAACAGGACCGGGUGAAUAUUUA [JR_SSTryptoB_Sub024] | 104 nM | 111 nM | 107 nM | 115 nM | 100 nM
6 | AAUAAGGUCGCCGAUACCAGCGCAGGCAGAGCAAAGCUCUGCCUAGUAGUGAUGUUACUGCGCCCUUGGCAGCGGUGGCACGACC [Omei KL Theo B SS C v4] | 863 nM | 824 nM | 930 nM | 397 nM | 798 nM
7 | AAUAAGGUCGCCGAUACCAGCGCGGGCAGAGCAAAGCUCUGCCCGGCAGUGAUGUUGCCGCGCCCUUGGCAGCGGUGGCACGACC [Omei KL Theo B SS C v7] | 166 nM | 48.4 nM | 47.2 nM | 216 nM | 55.8 nM
8 | AAUAAUCUAGGUGAUACCAGCUCAACAUGAGUGAUGUUCAUGAACUAAUGUAGAGUUGAGAGCCCUUGGCAGCACCUAGAUAAUA [KL-SSTheoB6] | 873 nM | 792 nM | 966 nM | 458 nM | 962 nM
9 | AAUAAUUUCAGAGGAUAUGCUUUAUUAUGAUUUUUAAAUAAUAAAUGCAGUGAUGUUGCUUAUUAUGCAGAAGGCUGAUUUAUAA [JR_SSFMNB_Sub015] | 143 nM | 727 nM | 747 nM | 721 nM | 565 nM
10 | AAUACCUGAGUGAUGUUCAGGGAAUCAGAAGGAGCGUCAAUUAUGACAGGUAGGUCGCUGAAUACAUGUGUGUAUACACAUGUAC [Arg A SS t4] | 217 nM | 189 nM | 278 nM | 243 nM | 229 nM
11 | AAUAGGGAUAGUGAUGUUAUCCCUUAUGAUACCAGUGCCAUCGGACACCCUUGGCAGCAUACGGGCAGUGAUGUUGUUCUUGGAG [Exclusion Theophylline A GF 15] | 103 nM | 75.5 nM | 78.6 nM | 76.5 nM | 79.3 nM
12 | AAUCACCGAGCGGCCGCCACUGCACAAAGCGAGUUUAUAGACACGGUACUGGAGUGAUGUUCGAGCAGGACCGGGCUAACUAAGC [theeternabot_sameState_KL_Trp_B_12] | 871 nM | 610 nM | 1190 nM | 758 nM | 729 nM
13 | AAUGGCGAGUGAUGUUCGCCCACCAAUGAUACCAGUGCCAUCGGACACCCUUGGCAGCAUACGGGCAGUGAUGUUGCUCUUGGAA [Exclusion Theophylline A GF 26] | 185 nM | 181 nM | 193 nM | 200 nM | 177 nM
14 | AAUUAAUACAGAAGGAGCGUGAAAUUAUCUACUUUUAACUUAGCGAGUGAUGUUCGUUUUUCACAGGUAGGUCGCUGUAUAUUUA [JR_ExcArginiB_Sub009] | 167 nM | 214 nM | 194 nM | 192 nM | 152 nM
15 | AAUUCAAACUGAAGGAGCGAGCAUUUUGGAGUGAUGUUCCAAGCGAGUGAUGUUCGCAUAGCUCAGGUAGGUCGCAGUUUGGAUA [Same State Arginie B GF 14] | 143 nM | 136 nM | 144 nM | 143 nM | 139 nM
16 | AAUUCAGUGAUGUUGGAAGGCAGGCGGGAUACCAGCGGAGAAUAACGCCCUUGGCAGCCCAUAUAUCCCAAAUAGAUAAUAGUUC [Same State - Theophylline A (Freestyle 3)] | 386 nM | 317 nM | 410 nM | 405 nM | 376 nM
17 | AAUUCUUAUCUUAGUUGAUUUCUAAUUAAACGAGGACCGGUACGGCCGCCACUCGGUUAUGAGUGAUGUUCAUGGAAUUACAUAA [JR_SSTryptoA_Sub019] | 407 nM | 601 nM | 515 nM | 791 nM | 169 nM
18 | AAUUUAGUGACGGCCGCCACUAGGGUGAUUUAUUUGUUUGAGUGAUGUUUUGAUGUUUGAUUUUGUAGGACCGGGUUAGGUGAUG [dddcmullin] | 354 nM | 304 nM | 363 nM | 326 nM | 271 nM
19 | AAUUUAUUAUCUGAUACCAGACUUUAUCUUGUUUAUAAGUCAAGUGAUGUUUGACUAUUAGUCCCUUGGCAGCAGUAUUUUUUAA [JR_Nu_SSTheophyB_Sub025] | 251 nM | 260 nM | 269 nM | 187 nM | 230 nM
20 | AAUUUAUUAUCUGAUACCAGACUUUUUCUUGUAUAUAAGUCAAGUGAUGUUUGACUUUUAGUCCCUUGGCAGCAGUAUUUUUUAA [JR_Nu_SSTheophyB_Sub027] | 165 nM | 149 nM | 168 nM | 123 nM | 155 nM
21 | ACACUAUCGUCAUAGACGGUAGUGAAAUCACAGGAUAUAAGUGAUGUUAGAAGGGUGAAAGACUGUAUCGAAUAGAUACAGUCAA [FmnA 3 #K4BetweenAptamer #OpenEnded] | 1140 nM | 605 nM | 913 nM | 861 nM | 878 nM

Row | Sequence | apparent KD of K4 kissing-loop reporter (input ligand: FMN 200 uM) | apparent KD of K4 kissing-loop reporter (input ligand: arginine 13.2 mM) | apparent KD of K4 kissing-loop reporter (input ligand: none) | apparent KD of K4 kissing-loop reporter [1] | apparent KD of K4 kissing-loop reporter [2]
22 | ACAGGAUCGAAGAUCCUGAGCAGUCAAAACCGAGGACCGGUACGGCCGCCACUCGGAGUGAUGUUCCGAAGACUGCAAAAUAAAA [#SwitchBubble 3] | 1090 nM | 760 nM | 1010 nM | 1010 nM | 692 nM
23 | ACAGUUGCUAGUGAUACCAGACUAGCACUACGUAGUAUGUCAAGUGAUGUUUGACAACUAGUCCCUUGGCAGCGCGAUACGACUG [#12 K4 Theophylline B Same State] | 181 nM | 152 nM | 170 nM | 136 nM | 169 nM
24 | ACAUAGGAUGGAAGGAGCGCUCGUCAGUCCUGCGAGUGAUGUUCGUGGGUAAAUAUUCGCGAGCAGGUAGGUCGCCAUCUUGAAA [Vedi] | 109 nM | 115 nM | 158 nM | 177 nM | 164 nM
25 | ACCAAUUUACCGGCAGUAGUGAUGUUACUCCGAGGACCGGUACGGCCGCCACUCGCGAACGUAGGGUUUCUGACUCGAAGAGUCU | 191 nM | 127 nM | 171 nM | 149 nM | 171 nM
26 | ACCACCUGUCUGGAUACCAGUCUUCGAGUGAUGUUGGAAGUUAGCCGGUUCUAUUACCUAGACCCUUGGCAGCCAGGAAUUAUAG [theeternabot_exclusion_KL_Theo_B_17] | 1140 nM | 861 nM | 1500 nM | 1130 nM | 872 nM
27 | ACCGCAUUGGGCUGAUCCCAAUGCGCUGGUCGAGGACCGGUACGGCCGCCACUCGUCCAGUGAUGUUGGACUAGGGCAACUGAAG [Veraceer] | 390 nM | 244 nM | 249 nM | 449 nM | 83.3 nM
28 | ACCUACCAUUAGUGAUGUUAAUGGACGGAAGGAGCGCAGAUAUCUGCAGGUAGGUCGCCGAAGGCUAGACAUUGUCUAGCCAUUA [AK1.1 SS Arginine A] | 227 nM | 178 nM | 197 nM | 163 nM | 183 nM
29 | ACCUACGAUCACAAAAGUGAUUGUAGGAUCUAGGAUAUGCUGAAAAGCAGAAGGAGAGUGAUGUUCUCAACUCACGAAAGUGAGA [FmnAX 1 #OpenEnded #K4Late] | 354 nM | 184 nM | 183 nM | 182 nM | 173 nM
30 | ACGAUUUACAGAAGGAGCGUGUAUUUAACUACAAUUAUCAUAGCGAGUGAUGUUCGUUAUACACAGGUAGGUCGCUGUAUAUCGA [JR_ExcArginiB_Sub012] | 364 nM | 367 nM | 356 nM | 451 nM | 397 nM
31 | ACGCAUGGGCAAGGAUAUGGUAGUGAUGUUACCUUUGCGGUGCCGGGAACGAAUGACGGUCAUGCGCCAGAAGGUGCUCAGACAA [theeternabot_exclusion_KL_FMN_B_23] | 203 nM | 180 nM | 178 nM | 250 nM | 183 nM
32 | ACGGUUUCCACGGCCGCCACUUGCGCAUUAGAUCUUACCCUAGGAGUGAUGUUCCAUACAAGUACAAGGACCGGGUGGGACAUAA [theeternabot_sameState_KL_Trp_B_28] | 257 nM | 369 nM | 375 nM | 342 nM | 239 nM
33 | ACGUAGUUCUAGGAUACCAGCCAAGGUGCCAGGACAAAAGUCCUGGCAGCCAGUGAUGUUGGCCCUUGGCAGCCUAGAACUACGA [Omei KL Theo B Exc B v7] | 164 nM | 145 nM | 154 nM | 122 nM | 137 nM
34 | ACUGAGCAUGCGGCCGCCACUUCAGAACGUCGCCCAAAGGGCGACGCCUCCAGAGUGAUGUUCUGGAGGACCGGGCAUGUUCAGA [Omei KL Tryp B Exc A v1] | 540 nM | 300 nM | 506 nM | 450 nM | 112 nM
35 | ACUGAGUUGACGAAAGUCAACAAUUGAGAAGGAGCGCACGAAAGUGCAGGUAGGUCGCUCAGUCCAGUGAUGUUGGAUCAUCAGA [#17 K4 Arginine A Same State] | 324 nM | 558 nM | 383 nM | 478 nM | 275 nM
36 | AGAAGAGUGAUGUUCUUCUAUAUCUCAGAAGGAGCGACAUAAAUGUCAGGUAGGUCGCUGAGAUGAAAUCUCACACAGAUCUUGG [Arg A SS t8] | 127 nM | 149 nM | 154 nM | 182 nM | 109 nM
37 | AGACGAGAUGAAGGAUAUGCGGACAAAGUGAUGUUUUGUCCGAAAGUAGGCAGUAAUAUCGAAAAUGCAGAAGGUCAAGAACAUA [theeternabot_exclusion_KL_FMN_B_36] | 135 nM | 173 nM | 143 nM | 256 nM | 145 nM
38 | AGACUACCAACACUGUCAAUAGACAGUGACUAGGAUAUGCUGAUAAGCAGAAGGAGUGAUGUUCCUAAUAGAAAGGUAGUCAAAU [FmnAX 17 #SwitchBubble #StaticStem #K4Early] | 294 nM | 237 nM | 252 nM | 222 nM | 219 nM
39 | AGACUACCACACUGUCAAUAGACAGUGAACUAGGAUAUGCUGAUAAGCAGAAGGAGUGAUGUUCCCAGGUAGUCAAUAAAAUAAU [FmnAX 13 C66] | 170 nM | 185 nM | 231 nM | 331 nM | 223 nM
40 | AGACUACCACACUGUCAAUAGACAGUGAACUAGGAUAUGCUGAUAAGCAGAAGGAGUGAUGUUCCUAAAGGUAGUCAAAUAUAAU [FmnAX 14 #SwitchBubble #StaticStem #K4Early] | 335 nM | 380 nM | 380 nM | 567 nM | 351 nM
41 | AGACUACCACACUGUCAAUAGACAGUGAGCUAGGAUAUGCUGAUAAGCAGAAGGAGUGAUGUUCCCAGGUAGUCAAUAAAAUAAU [FmnAX 13 G29+C66] | 272 nM | 192 nM | 231 nM | 302 nM | 238 nM
42 | AGACUACCACACUGUCAAUAGACAGUGAGCUAGGAUAUGCUGAUAAGCAGAAGGAGUGAUGUUCCUGGGUAGUCAAUAAAAUAAU [FmnAX 13 G29+G67] | 399 nM | 349 nM | 362 nM | 441 nM | 342 nM

Reference: the supplement of paper PMC9170038
